Measured values from US12583908B2, “Albumin protein variants, production thereof and uses of same” (Yeda Research and Development Co. Ltd., priority 2022, dated 2026).
Entries after “also recorded” stand apart in the source; their conditions may differ.

B1: HSA3: most highly mutated human albumin variant, 73 mutations all over the protein (Table 2) (protein)
chain: MDAHKSEVAHRFKDLGEENFKALVLIAFAQYLQKCPFEELVKMVKEVTEFAKKCVADETAENCDKSLHTLFGDKLCQVATLRETYGEMADCCAKQDPERHECFLQHKDDNPNLPRLERPEVDVMCKAFHDNEETFLNKYLYEIARRHPYFYAPELLYFAKRYKKAFTECCQAEDKAACLLPKLDALREEGKESSAKQRYKCAILQKFGERVFKAWAIARLSQRFPKAPFEEISKLVTDLTKVHKACCHGDMLECMDDRAKLAKYICENQDSISSKLKECCEKPLLERSHCIAEVENDDKPEDLPPLAADFVESKDVCKNYAEAKDVFLARFLYEYARRHPDYSVTLLLRIAKTYEDTLEKCCKAEDPHECYAKVEEEFKKLVEETQNLIKQNCELFEKLGEYYFQNALLIRYTKKMPQVPTDTLVELTRNLGKVGSKCCKLPEEKRLPCIEDYLSIVLNQLCVLHEKTPVNDRVTKCCTESLVNRRHCFSALEVDETYVPKEFNAETFTFHADLCTLSEEERQIMKQKFLVELVKHKPKATEEQLKAVMDDFTAFVEKCCKAEDPETCFAEEGSKLIAASQAALGL
modifications: Albumin Synthetic variant
B2: HSA1: human serum albumin variant with 16 mutations, no surface and no binding site mutations (Table 2) (protein)
chain: MDAHKSEVAHRFKDLGEENFKALVLIAFAQYLQQCPFEDLVKMVNEVTEFAKTCVADESAENCDKSLHTLFGDKLCTVATLRETYGEMADCCAKQEPERNECFLQHKDDNPNLPRLVRPEPDVMCTAFHDNEETFLKKYLYEIARRHPYFYAPELLYFAKRYKAAFTECCQAADKAACLLPKLDELREEGKASSAKQRHKCAILQKFGERAFKAWAVARLSQRFPKAEFAEVSKLVTDLTKVHTECCHGDLLECADDRADLAKYICENQDSISSKLKECCEKPLLEKSHCIAEVENDEMPADLPSLAADFIESKDVCKNYAEAKDVFLGMFLYEYARRHPDYSVVLLLRLAKTYETTLEKCCAAADPHECYSKVFDEFKPLIEEPQNLIKQNCELFEQLGEYKFQNALLIRYTKKVPQVSTPTLVEVARNLGKVGSKCCKHPEAKRMPCAEDYLSIVLNQLCVLHEKTPVSDRVTKCCTESLVNRRPCFSALEVDETYVPKEFNAETFTFHADICTLSEEERQIKKQTALVELVKHKPKATKEQLKAVMDDFSAFVEKCCKADDKETCFAEEGKKLIAASQAALGL
modifications: Albumin Synthetic variant

Assays:
[1] = Thermal stability by nanoDSF; assay type: physicochemical; conditions: His-tagged variants and commercial WT; 20 to 95° C. at 1° C./min
Protocol: (§1) Thermal stability measurements. Thermal stability of BSA and HSA variants (His-tagged form) and of commercial WT HSA and BSA (Sigma-Aldrich A1653 and A7638, respectively) was measured by nanoscale differential scanning fluorimetry (nanoDSF), in Prometheus NT.48 instrument (NanoTemper). The temperature was increased from 20° C. to 95° C. at 1° C./min ramp. Thermal stability of HSA variants was also measured by differential scanning calorimetry (DCS) in VP-DSC instrument (Malvern), with heating from 20° C. to 95° C. at 1° C./min and cooling at the same rate.

[2] = Thermal stability by differential scanning calorimetry (DSC); assay type: physicochemical
Protocol: as §1

[3] = system: HEK293T cells; assay: HEK293T cell culture with albumin variants; assay type: cell-based, human; conditions: 1 mg/ml albumin, medium with 5% FBS, 5 days
Protocol: HEK293T adherent cells were grown in DMEM supplemented with GlutaMAX, NEAA and 5% FBS (all from Gibco) at 37° C., 5% CO2. To test the viability of the cultured cells in the presence of PROSS BSA2, HSA1 and HSA3 in comparison to the commercial BSA or HSA, respectively, cells (˜3×10^3) were seeded in 24-well plate and followed each day for 5 days. All the albumin variants were added to the cells at 1 mg/ml in duplicates, and their effect was analyzed. As a control, no protein was added to the growth medium. In each time point, cells were collected and the number of total cells, live cells and % of viable cells were determined automatically using Brightfield Cell Counter DeNovix.

[4] = system: BsiEI; assay: DNA restriction of pET28b(+) with BsiEI in albumin-containing buffer; assay type: biochemical; conditions: 0.1 mg/ml albumin, 60-80° C., 15 min
Protocol: Samples of pET28b(+) vector (1.5 μg) were restricted by BsiEI (10U, NEB) in 15 μl reaction volumes containing the Cutsmart buffer (NEB) or a reconstituted equivalent (50 mM Potassium acetate, 20 mM Tris-acetate, Mg-acetate, pH 7.9) supplemented with 0.lmg/ml of either commercial BSA (Sigma), HSA1, BSA2, or HSA3 variants (tagless, after gel filtration and ion exchange purification) at temperatures of 60-80° C. for 15 min using a gradient PCR (SensoQuest). Samples were then supplemented with 5 μl DNA sample buffer (150 mM TrisHCl pH 7.4, 5% SDS, 50% Glycerol, 0.05% Bromophenol Blue), heated (60° C., 10 min), and resolved on a 2% agarose-TAE gel containing 0.5 μg/mL Ethidium Bromide for 1.5h at 120V.

[5] = system: NcoI and XhoI enzymes; assay: DNA restriction of pET29b with NcoI and XhoI in albumin-containing buffer; assay type: biochemical; conditions: 0.1 mg/ml albumin, overnight at 37° C.
Protocol: DNA Restriction. pET29b vector with 900 bp insert was restricted with NcoI and XhoI enzymes (NEB) overnight at 37° C., using the following buffers: rCutsmart buffer (NEB, contains 0.1 mg/ml rBSA), buffer 4 (NEB, identical composition to rCutsmart buffer, but no BSA), and buffer 4 supplemented with HSA1, BSA2, and HSA3 variants (tagless, after gel filtration and ion exchange purification) at 0.1 mg/ml.

[6] = Gel filtration (size exclusion) chromatography; assay type: physicochemical
Protocol: At the final stage, all the variants were purified by gel filtration chromatography, using HiLoad Superdex 200 column for preps coming from large scale expression (>500 ml culture) and HiLoad Superdex 75 column for preps coming from medium scale expression (50-500 ml culture).

[7] = Crystal structure of HSA1 with warfarin, bound myristate; assay type: binding; conditions: no myristate added
Protocol: Crystallization and structure determination of HSA1 and Warfarin. Tagless HSA1 protein obtained from SUMO-HSA production was concentrated to 100 mg/ml in Tris buffer pH 7.0 and supplemented with 1 mM warfarin from 100 mM stock in DMSO. Crystals of HSA1 and warfarin were obtained using the hanging-drop vapor diffusion method with a Mosquito robot (TTP LabTech). All datasets were collected under cryogenic conditions at the European Synchrotron Radiation Facility (ESRF), Grenoble, France at beamline ID30B. The crystals were grown from 0.05 M NaCl, 10% PEG 4000 and 0.05 Tris pH=8.0. The crystals formed in the space group P1, with two monomers per asymmetric unit and diffracted to 2.0 Å resolution. The integrated reflections were scaled using the AIMLESS program (20) from the CCP4i2 program suite (21). HSA1 structure determined by molecular replacement with PHASER (22) using the structure of human serum albumin in complex with aristolochic acid (PDB code 6HSC). All steps of atomic refinement were carried out with the CCP4i2/REFMAC5 program (23) and by PHENIX.refine (24). The models were built into 2 mFobs-DFcalc, and mFobs-DFcalc maps by using the COOT program (25). The model was optimized using PDB_REDO (25, 26) and was evaluated with MOLPROBITY (27). […] Details of the refinement statistics of HSA1 and Warfarin structure are described in Table 1.

Row | Molecule | Melting temperature nanoDSF [1] | Thermal stability [2] | Reversibility of thermal unfolding ([2]; heating and cooling) | Melting temperature (DSC) ([2]; heating at 1° C./min) | Effect on number of HEK293T cells [3] | Effect on viability of HEK293T cells [3] | Restriction performance, pET28b(+) digested with BsiEI [4] | Restriction performance, pET29b(+) digested with NcoI and XhoI [5] | Oligomeric state by gel filtration [6] | Fatty-acid (myristate) binding [7]
1 | B1 | > 95 °C | stable beyond the boiling point | reversible temperature-dependent folding and unfolding | 100.5 °C | no adverse effect | no adverse effect | performed equally well | performed equally well |  | 
2 | B2 | 86 °C |  |  |  | no adverse effect | no adverse effect | performed equally well | performed equally well | completely monomeric | indistinguishable from the wild type; also recorded: four molecules of myristate fatty acid are present in the structure
